Here are results for one molecule from patent publication US12529083B2, “CYP76AD1-beta clade polynucleotides, polypeptides, and methods for producing betalains” (YEDA RESEARCH AND DEVELOPMENT CO. LTD., priority 2015, dated 2026).

The subject of this test is tyrosine hydroxylation to L-DOPA. Nature of the test: Transient expression in N. benthamiana leaves, LC-MS detection of L-DOPA. Type of test: in vivo, Nicotiana benthamiana. The following applies: vector or gene infiltrated without BvDODA1, LC-MS. How it is done:
In all cases, agrobacteria were grown overnight in LB media and brought to a final O.D.600 0.2 in infiltration buffer. When co-infiltrated, agrobacteria carrying separate constructs were each brought to O.D.600 0.2 and mixed in a 1:1 ratio before infiltration. Tissues used for subsequent LC-MS analysis were sampled from leaves 7 days post infiltration. For LC-MS analysis of L-DOPA and betalains, 3-4 biological replicates for each experiment were sampled, each consisting of infiltrated tissues from 2-3 different leaves. For L-DOPA analysis, samples were extracted as described above and analyzed using a UPLC/PDA-MSMS instrument, where a UPLC separation module (Waters Acquity) was connected to a photodiode array detector (Waters Acquity 2996, 190-800 nm), and (on-line) to a triple quadrupole MS detector (Waters Xevo TQ MS), equipped with an ESI source. […] Samples were analyzed in positive ionization mode, using the following settings: capillary—2 kV, cone—26 eV, with two transitions 198.1>152.1 (collision—15 eV) and 198.1>181.1 (collision—10 eV) used for compound assignment. […]

B1: CYP76AD15: Mirabilis jalapa cytochrome P450, functional ortholog of CYP76AD6, catalyzing formation of L-DOPA from tyrosine (SEQ ID NO: 44) (protein, listed as Mirabilis jalapa)
chain: MENTMLGVILATIFLTFHIMKMLFSPSKVKLPPGPRPLPIIGNILELGDKPHRSFANLAKIHGPLVTLKLGSVTTIVVSSSEVAKEMFLKNDQPLANRTIPDSVRAGNHDKLSMSWLPVSPKWRNLRKISAVQLLSTQRLDASQAHRQAKIKQLIEYVKKCSKIGQYVDIGQVAFTTSLNLLSNTFFSKELASFDSDNAQEFKQLMWCIMEEIGRPNYADYFPILGYVDPFGARRRLSRYFDQLIEVFQVIIRERLTHDNNIVGNNNDVLATLLDLYKQNELTMDEINHLLVDIFDAGTDTTASTLEWAMSELIKNPHIMAKAQEEVRRATMSHGGATVAEIQESDINNLPYIQSIIKETLRLHPPTVFLLPRKADVDVQLFGYVVPKNAQVLVNLWAIGRDPNVWPDPEVFSPERFMDCEIDVKGRDFELLPFGAGRRICPGLSLAYRMLNLMLANMVHSFDWKLPGVENGSGSEMDSLDMDEKFGITLQKVQPLKVIPVSRK
For B1, the L-DOPA production entry is “L-DOPA production when infiltrated alone”.
